Data from the nanobody polyreactivity screen of Harvey et al. (2022).

Assay: yeast display, Sf9 membrane polyspecificity reagent, FACS + sequencing; frameworks hold sequencing errors
How it was run: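 Sorting gates, low and high (top ~1%), were placed on anti-HA fluorescence to track expression and on streptavidin fluorescence to track reagent binding. A clone's polyreactivity label is taken from the gate it came out of. The reagent was 10% biotinylated, detergent-solubilized Sf9 membrane, applied for 1 hour at 4 °C to galactose-induced yeast display cells.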

Sequence | polyreactivity (PSR sort gate)
QVQLVESGGGLVQAGGSLRLSCAASGSIFVNNAMGWYRQAPGKERELVAAISSRGGSTYYADSVKGRFTISRDNAKNTVYLQMNSLKPEDTAVYYCAAEYDGPYYSFYPEQRYYWGLGTQVTVSS | low polyreactivity
QVQLVESGGGLVQAGGSLRLSCAASGSIFVNYAIGWYRQAPGKERELVAAISRSGGRTYYADSVKGRFTISRDNAMNSVYLQMNSLKPEDTAVYYCNVYPVLRTIEGDYWGQGTQVTVSS | high polyreactivity
QVQLVESGGGLVQAGGSLRLSCAASGSIFVPNAMGWYRQAPGKERELVAAITSGGSTYYADSVKGRFTISRDNAKNTVYLQMNSLKPEDTAVYYCAAEYWLGLYTYDYWGQGTQVTVSS | high polyreactivity
QVQLVESGGGLVQAGGSLRLSCAASGSIFVPYAMGWYRQAPGKERELVAAISYRGGNTYYADSVKGRFTISRDKAKNTVSLQMNSLKPEDTAVYYCNAGVSIGRSRRDDYWGQGTQVTVSS | low polyreactivity
QVQLVESGGGLVQAGGSLRLSCAASGSIFVQNAMGWYRQAPGKERELVAAINSGGSTYYADSVKGRFTISRDNANNTVYLQMNSLKPEDTAVYYCAADHNYYAYSYYYWGQGTQVTVSS | low polyreactivity
QVQLVESGGGLVQAGGSLRLSCAASGSIFVRNAMGWYRQAPGKERELVAAITSDVNTYYADSVKGRFTISRDNGKNTVYLQMNSLKPEDTAVYYCAKGVTSQPNDPAPFPRYEYWGQGTQVTVSS | low polyreactivity
QVQLVESGGGLVQAGGSLRLSCAASGSIFVRNTMGWYRQAPGKERELVASIDWSGGITYYADSVKGRFTISRDNAKNTVYLQMNSLKPEDTAVYYCNAVFLYPFNVPTMEYWGQGTQVTVSS | low polyreactivity
QVQLVESGGGLVQAGGSLRLSCAASGSIFVRNTMGWYRQAPGKERELVATISSGGRTNYADSVKGRFTISRDNAKNTVYLQMNSLKPEDTAVYYCNRPRWYGGSPYYYWGQGTQVTVSS | high polyreactivity
QVQLVESGGGLVQAGGSLRLSCAASGSIFVRNTMGWYRQAPGKERELVATISSGGRTYYADSVKGRFTISRDNAKNTVYLQMNSLKPEDTAVYYCAAGYSYAQYSYPFLSFAFGYWGQGTQVTVSS | high polyreactivity
QVQLVESGGGLVQAGGSLRLSCAASGSIFVRNVMGLYRQAPGKERELVATIRYRGGSTYYADSVKGRFSISRDNAKNTVYLQMNSLKPEDTAVYYCNARYLWADEYYYWGQGTQVTVSS | low polyreactivity
QVQLVESGGGLVQAGGSLRLSCAASGSIFVRYAMGWYRQAPGKERELVAAFTSSAGSTYYADSVKGRFTISRDNAKNTVYLQMNSLKPEDTAVYYCAAVRYYPSKFYYWGQGTQVTVSS | high polyreactivity
QVQLVESGGGLVQAGGSLRLSCAASGSIFVSNAMGWYRQAPGKERELVAAISYSTSRTYYADSVKGRFTISRDNAKNTVYLQMNSLKPEDTAVYYCAVRVRVADGRSNYWGQGTQVTVSS | high polyreactivity
QVQLVESGGGLVQAGGSLRLSCAASGSIFVTNAMGWYRQAPGKEREWVAAISVSGGSTYYADSVKGRFTISRDNAKNTVYLQMNSLKPEDTAVYYCAAPGRLFSLYDYWGQGTQVTVSS | low polyreactivity
QVQLVESGGGLVQAGGSLRLSCAASGSIFVTYAMGWYRQAPGKERELVAVITWGGGSTYYADSVKGRFTISRDNAKNTVYLQMNSLKQEDTAVYYCAKDAFFTEIAIRDHIISHHYYWGQGTQVTVSS | low polyreactivity
QVQLVESGGGLVQAGGSLRLSCAASGSIFVTYGMGWYRQAPGKERELVARITTSGGSTYYADSVKGRFTISRDNAKNTVYLQMNSLKQEDTAVYYCNVRFAWGWTYWRYDYWGQGTQVTVSS | high polyreactivity
QVQLVESGGGLVQAGGSLRLSCAASGSIFVVNAMGWYRQAPGKERELVAGISFRGGTTYYADSVKGRFTISRDNAMNTVYLQMNSLKPEDTAVYYCNAVYTSNRNEYDYWGQGTQVTVSS | low polyreactivity

Sequence | polyreactivity (PSR sort gate)
QVQLVESGGGLVQAGGSLRLSCAASGSIFVVYAMGWYRQAPGKERELVAGISDGDNTNYADSVKGRFTISRDNAKNTVYLQMNSLKPEDTAVYYCNADGTSRNLEGFDYWGQGTQVTVSS | low polyreactivity
QVQLVESGGGLVQAGGSLRLSCAASGSIFVWYAMGWYRQAPGKERELVARITSGGRTNYADSVKGRFTISRDNAKNTVYLQMNSLKPEDTAVYDCAAGRVSWSPYYYWGQGTQVNVSS | high polyreactivity
QVQLVESGGGLVQAGGSLRLSCAASGSIFVWYVMGWYRQAPGKERELVAVISRSGGSTYYADSVKGRFTISRDNAKNTVYLQMNSLKPEDTAVYYCAADSRSYYRDVDYWGQGTQVTVSS | low polyreactivity
QVQLVESGGGLVQAGGSLRLSCAASGSIFVYNAMGRYRQAPGKERELVAAISRSGASTYYADSVKGRFTISRDNAKNTVYLQMNSLKPEDTAVYYCAAEFRQGGYTFGYWGQGTQVTVSS | high polyreactivity
QVQLVESGGGLVQAGGSLRLSCAASGSIFVYNAMGWYRQAPGKEREFVAAITKRVGRTYYADSVKGRFTISRDNAKNTVYLQMNSLKPEDTAVYYCAAVLSYTGGFDYWGQGTQVTVSS | high polyreactivity
QVQLVESGGGLVQAGGSLRLSCAASGSIFVYNAMGWYRQAPGKERELVAAISTSGGRTYYADSVKGRFTISRDNAKNTVYLQMNSLKPEDTAVYYCNALGYWRRVVDGFDYWGQGTQVTVSS | high polyreactivity
QVQLVESGGGLVQAGGSLRLSCAASGSIFVYNAMGWYRQAPGKEREWVAGITLIGGSTYYADSVKGRFTISRDNAKNTVYLQMNSLKPEDTAVYYCNADVAPGIFYGYDSWGQGTQVTVSS | low polyreactivity
QVQLVESGGGLVQAGGSLRLSCAASGSIFVYNAMGWYSPAPGQERELVAAITYSGGRTYYADSVKGRFTISRDNAKNTVYVQMNSLKPEDTAVDFCAADLTSKSSPQGYRYDYWGQGTQVTVSS | low polyreactivity
QVQLVESGGGLVQAGGSLRLSCAASGSIFVYYAMGWYRQAPGKERELGAAISSTGGRTYYADSVKGRFTISRDNAKNTVYLQMNSLKPEDTAVYYCAKTPTVVEFDYWGQGTQVTVAS | low polyreactivity
QVQLVESGGGLVQAGGSLRLSCAASGSIFVYYAMGWYRQAPGKERELVAAINSSGGRTYYADSVKGRFTISRDNAKNTVYLQMNSLKPEETAVYYCAAVYRYWTSYNGRNYWGQGTQVTVSS | high polyreactivity
QVQLVESGGGLVQAGGSLRLSCAASGSIFVYYAMGWYRQAPGKERELVATISSDVSTYYSDSVKGRFTISRDNAKNTVYVQMNRLKPEDTAVDYCAATVSFDWAYSFSLDLEDDYWGQGTQVTVSS | low polyreactivity
QVQLVESGGGLVQAGGSLRLSCAASGSIFVYYAMGWYRQAPGNERELVAAISKTGGRTYYADSVKGRFTISRDNAKNTVYLQMNSLKPEDSAVYYCAARYTIRYKRYDYWGQGTQVTVSS | high polyreactivity
QVQLVESGGGLVQAGGSLRLSCAASGSIFWFNAMGWYRQAPGNERELVATIRYSGGSTYYADSVKGRFTISRDNAKNTVYLQMNSLKPEDTAVYYCAAVSRYSRSGYEYWGQGTQVTVSS | high polyreactivity
QVQLVESGGGLVQAGGSLRLSCAASGSIFWGIAMGWYRQAPGTERELVAAISWGGGRTYYADSVKGRFTLSRDNAKNTVYLQMNSLKPEDTAVYYCNTRYPYVVSTGYDYWGQGTQVTVSS | high polyreactivity
QVQLVESGGGLVQAGGSLRLSCAASGSIFWGNAMGCYRQAPGKERELVASISDSGGSTYADSVKGRFTISRDNAKNTVYLQMNSLKPEDTAVYYCAADDWYSAGIRNWYYGGYDYWGQGTQVTVSS | low polyreactivity
